Values quoted from earlier work, collected in PMC5371392.

Target: KaiC (Synechococcus elongatus) (UniProt Q79PF4)
Chain of UniProt Q79PF4 (Q79PF4 whole entry): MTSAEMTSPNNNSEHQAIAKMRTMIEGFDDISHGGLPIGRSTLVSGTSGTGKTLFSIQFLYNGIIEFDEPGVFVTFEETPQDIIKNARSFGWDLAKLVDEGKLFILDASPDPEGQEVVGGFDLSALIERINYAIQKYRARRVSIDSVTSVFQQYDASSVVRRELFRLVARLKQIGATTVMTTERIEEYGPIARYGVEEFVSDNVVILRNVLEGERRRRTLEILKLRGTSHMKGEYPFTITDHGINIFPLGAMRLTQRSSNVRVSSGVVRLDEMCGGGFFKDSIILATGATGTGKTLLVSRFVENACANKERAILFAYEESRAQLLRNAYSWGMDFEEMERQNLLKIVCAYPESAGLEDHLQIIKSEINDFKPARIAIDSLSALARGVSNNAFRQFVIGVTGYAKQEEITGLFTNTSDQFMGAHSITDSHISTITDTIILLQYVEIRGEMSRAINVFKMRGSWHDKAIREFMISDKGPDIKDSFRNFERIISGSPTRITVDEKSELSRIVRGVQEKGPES

- Kd: 1 nM
Substance: KaiA (from UniProt Q79PF6)
